Experimental data from PMC6937562, “Combining SPR with atomic-force microscopy enables single-molecule insights into activation and suppression of the complement cascade” (The Journal of Biological Chemistry, 2019).

Assays:
Details in all cases: both partners purified
C3b [1] = molecular target: T1, C3b (human, UniProt P01024 23-667; P01024 749-1663); test: SPR; homemade HJEM7 chip, 143 RU C3b amine-coupled and 174 RU 3′-sialyllactose clicked on; FH (2 μM to 3.9 nM) or FH 19–20 (10 μM to 3.9 nM) flowed; Biacore T200, 25 °C, HBS-P pH 7.4; 1:1 steady-state model
T1 construct: complement C3 beta chain, human; Immobilised by amine coupling, via the nascent thioester (physiological) or via the free thiol of hydrolysed C3b; the way is told in each assay's format; also called C3b(H2O); C3b-SH; source: bought: Complement Technologies, Inc. (human plasma-derived)

C3b [2] = molecular target: T1, C3b; test: SPR; homemade HJEM4 chip with maleimide groups, 240 RU hydrolyzed C3b coupled via its free thiol; FH flowed (2 μM to 3.9 nM); Biacore T200, 25 °C, HBS-P pH 7.4; 1:1 steady-state model
C3b [3] = molecular target: T1, C3b; test: SPR; C1 chip, 196 RU C3b immobilised physiologically (seed C3b, then seven cycles of FB+FD and C3); FH flowed (2 μM to 7.8 nM); Biacore T200, 25 °C, HBS-P pH 7.4; 1:1 steady-state model
C3b [4] = molecular target: T1, C3b; test: SPR; C1 chip, 144 RU C3b amine-coupled; FH flowed (2 μM to 7.8 nM, 2-fold series, duplicates); Biacore T200, 25 °C, HBS-P pH 7.4, 150 mM NaCl, 1 mM MgCl2; 1:1 steady-state model
C3b [5] = molecular target: T1, C3b; test: SPR; homemade HJEM7 chip (50% OH, 25% COOH, 25% propargyl), 144 RU C3b amine-coupled; FH (2 μM to 3.9 nM) or FH 19–20 (10 μM to 3.9 nM) flowed; Biacore T200, 25 °C, HBS-P pH 7.4; 1:1 steady-state model
C3b [6] = molecular target: T1, C3b; test: SPR; homemade HJEM2 chip (1% COOH, 99% OH), 313 RU C3b amine-coupled; FH flowed (2 μM to 3.9 nM); Biacore T200, 25 °C, HBS-P pH 7.4; 1:1 steady-state model

B1: factor H (natural protein, human, UniProt P08603 19-1231, looked up)
chain: EDCNELPPRRNTEILTGSWSDQTYPEGTQAIYKCRPGYRSLGNVIMVCRKGEWVALNPLRKCQKRPCGHPGDTPFGTFTLTGGNVFEYGVKAVYTCNEGYQLLGEINYRECDTDGWTNDIPICEVVKCLPVTAPENGKIVSSAMEPDREYHFGQAVRFVCNSGYKIEGDEEMHCSDDGFWSKEKPKCVEISCKSPDVINGSPISQKIIYKENERFQYKCNMGYEYSERGDAVCTESGWRPLPSCEEKSCDNPYIPNGDYSPLRIKHRTGDEITYQCRNGFYPATRGNTAKCTSTGWIPAPRCTLKPCDYPDIKHGGLYHENMRRPYFPVAVGKYYSYYCDEHFETPSGSYWDHIHCTQDGWSPAVPCLRKCYFPYLENGYNQNYGRKFVQGKSIDVACHPGYALPKAQTTVTCMENGWSPTPRCIRVKTCSKSSIDIENGFISESQYTYALKEKAKYQCKLGYVTADGETSGSITCGKDGWSAQPTCIKSCDIPVFMNARTKNDFTWFKLNDTLDYECHDGYESNTGSTTGSIVCGYNGWSDLPICYERECELPKIDVHLVPDRKKDQYKVGEVLKFSCKPGFTIVGPNSVQCYHFGLSPDLPICKEQVQSCGPPPELLNGNVKEKTKEEYGHSEVVEYYCNPRFLMKGPNKIQCVDGEWTTLPVCIVEESTCGDIPELEHGWAQLSSPPYYYGDSVEFNCSESFTMIGHRSITCIHGVWTQLPQCVAIDKLKKCKSSNLIILEEHLKNKKEFDHNSNIRYRCRGKEGWIHTVCINGRWDPEVNCSMAQIQLCPPPPQIPNSHNMTTTLNYRDGEKVSVLCQENYLIQEGEEITCKDGRWQSIPLCVEKIPCSQPPQIEHGTINSSRSSQESYAHGTKLSYTCEGGFRISEENETTCYMGKWSSPPQCEGLPCKSPPEISHGVVAHMSDSYQYGEEVTYKCFEGFGIDGPAIAKCLGEKWSHPPSCIKTDCLSLPSFENAIPMGEKKDVYKAGEQVTYTCATYYKMDGASNVTCINSRWTGRPTCRDTSCVNPPTVQNAYIVSRQMSKYPSGERVRYQCRSPYEMFGDEEVMCLNGNWTEPPQCKDSTGKCGPPPPIDNGDITSFPLSVYAPASSVEYQCQNLYQLEGNKRITCRNGQWSEPPKCLHPCVISREIMENYNIALRWTAKQKLYSRTGESVEFVCKRGYRLSSRSHTLRTTCWDGKLEYPTCAKR
notes: complement factor H, human, 155-kDa serum glycoprotein of 20 CCP modules; Free FH: flowed as analyte in SPR, or amine-coupled directly to the AFM tip; also called FH; CFH; source: isolated from human plasma (TCS Biosciences Ltd.)
Work on B1 yielded a Kd (C3b [1]) of 90 nM, a Kd (C3b [2]) of 180 nM and a Kd (C3b [3]) of 130 nM. The Kd (C3b [4]) was 230 nM, the Kd (C3b [5]) was 70 nM and the Kd (C3b [6]) was 50 nM.
